Source: patent US20250382355A1 (Merck Sharp & Dohme, published 2025)

T1: OC43 spike protein (human coronavirus OC43, UniProt P36334 14-1278)
T1 sequence: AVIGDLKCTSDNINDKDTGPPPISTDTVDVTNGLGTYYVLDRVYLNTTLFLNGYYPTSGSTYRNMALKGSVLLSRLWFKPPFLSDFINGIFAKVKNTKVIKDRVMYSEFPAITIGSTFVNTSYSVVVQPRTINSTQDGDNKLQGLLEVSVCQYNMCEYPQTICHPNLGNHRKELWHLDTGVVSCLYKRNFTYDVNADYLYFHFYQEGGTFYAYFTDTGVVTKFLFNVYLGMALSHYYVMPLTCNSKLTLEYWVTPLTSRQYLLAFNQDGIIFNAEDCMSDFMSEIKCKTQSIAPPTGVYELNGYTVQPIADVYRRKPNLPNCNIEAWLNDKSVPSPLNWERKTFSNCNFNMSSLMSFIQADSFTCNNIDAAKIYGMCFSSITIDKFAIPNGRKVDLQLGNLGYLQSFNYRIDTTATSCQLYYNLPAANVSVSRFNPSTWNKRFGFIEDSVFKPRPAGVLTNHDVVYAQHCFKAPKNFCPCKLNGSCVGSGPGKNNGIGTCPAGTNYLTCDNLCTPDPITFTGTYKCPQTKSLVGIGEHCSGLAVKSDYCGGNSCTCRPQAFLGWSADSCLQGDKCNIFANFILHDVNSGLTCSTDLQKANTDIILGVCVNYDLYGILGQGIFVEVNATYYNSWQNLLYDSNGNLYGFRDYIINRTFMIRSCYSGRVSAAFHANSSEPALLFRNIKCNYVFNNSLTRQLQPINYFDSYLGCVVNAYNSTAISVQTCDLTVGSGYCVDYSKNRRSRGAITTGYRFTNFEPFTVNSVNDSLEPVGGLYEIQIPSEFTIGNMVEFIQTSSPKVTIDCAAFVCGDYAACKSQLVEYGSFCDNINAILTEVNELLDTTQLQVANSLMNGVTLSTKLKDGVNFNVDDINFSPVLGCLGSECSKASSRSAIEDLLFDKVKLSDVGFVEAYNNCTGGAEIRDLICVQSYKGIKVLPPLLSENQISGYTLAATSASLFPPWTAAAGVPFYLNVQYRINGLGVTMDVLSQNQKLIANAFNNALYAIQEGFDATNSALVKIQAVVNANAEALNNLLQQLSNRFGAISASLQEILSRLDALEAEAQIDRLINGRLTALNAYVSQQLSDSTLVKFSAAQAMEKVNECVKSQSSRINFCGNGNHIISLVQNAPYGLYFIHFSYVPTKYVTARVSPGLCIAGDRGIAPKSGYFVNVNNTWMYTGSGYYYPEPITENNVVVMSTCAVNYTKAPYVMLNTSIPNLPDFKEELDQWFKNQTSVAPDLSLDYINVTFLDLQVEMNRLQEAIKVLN

T2: MERS spike protein on recombinant CHO K1 cells (MERS-CoV, UniProt K9N5Q8 18-1353)
T2 sequence: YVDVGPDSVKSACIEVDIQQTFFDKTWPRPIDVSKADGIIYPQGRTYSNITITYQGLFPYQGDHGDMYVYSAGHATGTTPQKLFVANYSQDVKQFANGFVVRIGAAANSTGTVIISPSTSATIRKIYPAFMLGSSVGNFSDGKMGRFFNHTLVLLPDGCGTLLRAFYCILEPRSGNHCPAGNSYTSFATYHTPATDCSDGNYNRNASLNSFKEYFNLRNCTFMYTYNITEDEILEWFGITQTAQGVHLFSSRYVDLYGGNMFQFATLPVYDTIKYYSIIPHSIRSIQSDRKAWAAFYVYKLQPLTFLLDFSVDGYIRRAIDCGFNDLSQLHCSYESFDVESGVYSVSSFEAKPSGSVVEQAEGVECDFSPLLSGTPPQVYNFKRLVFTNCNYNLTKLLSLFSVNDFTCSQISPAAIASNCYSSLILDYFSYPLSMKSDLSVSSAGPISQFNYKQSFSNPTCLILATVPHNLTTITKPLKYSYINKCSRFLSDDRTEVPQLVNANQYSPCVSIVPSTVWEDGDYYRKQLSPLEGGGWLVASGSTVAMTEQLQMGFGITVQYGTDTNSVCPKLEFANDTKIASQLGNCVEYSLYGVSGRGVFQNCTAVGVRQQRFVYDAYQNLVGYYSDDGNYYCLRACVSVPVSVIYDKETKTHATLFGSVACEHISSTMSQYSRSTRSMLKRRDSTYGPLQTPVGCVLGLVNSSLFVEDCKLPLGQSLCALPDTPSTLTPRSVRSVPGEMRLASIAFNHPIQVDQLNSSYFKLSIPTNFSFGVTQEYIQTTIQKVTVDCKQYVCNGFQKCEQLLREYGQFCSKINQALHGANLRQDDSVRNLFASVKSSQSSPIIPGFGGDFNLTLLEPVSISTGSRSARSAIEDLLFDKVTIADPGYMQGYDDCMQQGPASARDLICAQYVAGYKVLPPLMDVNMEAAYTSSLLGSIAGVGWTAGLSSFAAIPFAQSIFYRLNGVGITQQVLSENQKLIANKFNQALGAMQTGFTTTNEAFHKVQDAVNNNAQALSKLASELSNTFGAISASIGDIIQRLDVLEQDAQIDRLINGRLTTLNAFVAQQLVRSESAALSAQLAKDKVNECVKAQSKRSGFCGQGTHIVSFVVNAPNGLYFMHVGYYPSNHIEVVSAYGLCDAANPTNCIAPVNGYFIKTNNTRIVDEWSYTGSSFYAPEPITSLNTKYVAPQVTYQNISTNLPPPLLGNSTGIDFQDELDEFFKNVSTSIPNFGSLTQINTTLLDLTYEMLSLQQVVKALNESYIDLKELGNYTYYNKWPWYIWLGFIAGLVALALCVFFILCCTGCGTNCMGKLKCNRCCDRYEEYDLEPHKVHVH


Key:
OC43 spike protein = target: T1, OC43 spike protein; assay: ELISA
[1] = target: T3, SARS-CoV-2 spike protein on recombinant CHO K1 cells (SARS-CoV-2, UniProt P0DTC2 14-1273); assay: FACS on CHO K1 cells
T3 construct: whole, on cells

[2] = target: T2, MERS spike protein on recombinant CHO …; assay: FACS on CHO K1 cells
[3] = target: SARS-CoV spike on rVSV-deltaG-Luc pseudovirus (SARS-CoV, UniProt P59594 14-1236); assay: cell-based or functional assay
[4] = target: spike protein of authentic SARS-CoV/Urbani virus (SARS-CoV, UniProt P59594 14-1255); assay: cell-based or functional assay
[5] = target: spike protein of authentic SARS-CoV-2 virus (SARS-CoV-2, UniProt P0DTC2 14-1273); assay: cell-based or functional assay
[6] = target: SARS-CoV spike protein on recombinant CHO K1 cells (SARS-CoV, UniProt P59594 14-1255); assay: FACS on CHO K1 cells

Binder | EC50 (OC43 spike protein) | EC50 [1] | EC50 [2] | pseudovirus neutralization IC50 [3] | authentic virus neutralization IC50 [4] | authentic virus neutralization IC50 [5] | EC50 [6] | binding result [2]
6A1 VHH-Fc (Fc fusion) QVQLVESGGGLVQAGGSLRLSCTASGNIFSVNVMGWHRQAPGKRRELVAALTNDGRRNYADSVKGRFTISRDNAKNTIYLEMNSLKPEDTAVYYCGTGTLESGFNSWGQGLQVTVSS | 0.08 nM | 0.14 nM | 0.13 nM |  |  |  |  | 
10B8 VHH-Fc (Fc fusion) QVQLVESGGGLVQPGGSLRLSCAASGITLDYYAIAWFRQAPGKEREGVSCFCSSDGDIRYADSVKGRFTISRDNAKNTVYLQMNSLKPEDTAVYYCATERVYSSTWFFHRYSELDFGSWGRGTQVTVSS |  | 0.19 nM |  | 0.09 nM | 0.04 nM | 0.3 nM | 0.14 nM | no binding
1E4 VHH-Fc (Fc fusion) QVLLVESGGGLVQAGGLLRLACSASGRTFTENVMGWFRQAPGKEREFVAAINWNTGSTYYSDSRKGRFTISKDNAKNTMFLQINNLKPEDTAVYYCGGTSSSYYYIGEFIPDYWGQGTQVTVSS |  | 0.06 nM |  | 0.06 nM | 0.05 nM | 0.2 nM |  | no binding
